Results: publication PMC3998512 (DNA repair, 2013)

How the values were obtained:
GST tagged human Cdk1 = GST tagged human Cdk1 (human, UniProt P06493 1-297); test: far-Western, overlay or dot blot
His tagged human PCNA = His tagged human PCNA (human, UniProt P12004 1-261); test: far-Western, overlay or dot blot
His tagged human PCNA, sequence (P12004 whole entry): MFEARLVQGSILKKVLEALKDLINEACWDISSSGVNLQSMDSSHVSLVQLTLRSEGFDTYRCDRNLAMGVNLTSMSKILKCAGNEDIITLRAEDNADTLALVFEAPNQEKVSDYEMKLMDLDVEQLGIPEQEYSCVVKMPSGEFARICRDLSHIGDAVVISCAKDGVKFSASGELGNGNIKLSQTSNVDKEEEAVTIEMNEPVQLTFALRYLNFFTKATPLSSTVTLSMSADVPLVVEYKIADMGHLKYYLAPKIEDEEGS

GST tagged human Cdk1, sequence (P06493 whole entry): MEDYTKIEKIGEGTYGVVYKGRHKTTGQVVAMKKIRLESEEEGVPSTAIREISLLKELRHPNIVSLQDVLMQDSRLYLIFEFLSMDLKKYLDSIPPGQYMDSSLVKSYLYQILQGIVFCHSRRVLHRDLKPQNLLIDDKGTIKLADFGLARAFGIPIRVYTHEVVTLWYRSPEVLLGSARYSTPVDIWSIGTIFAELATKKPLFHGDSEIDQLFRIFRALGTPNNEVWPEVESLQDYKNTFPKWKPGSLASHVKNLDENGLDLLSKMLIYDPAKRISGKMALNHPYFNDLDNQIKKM

binding result (GST tagged human Cdk1)	binding result (His tagged human PCNA)	Binder
binds		His tagged human Δ16mtSSB (mtSSB lacking 16 N-terminal amino acids) (natural protein, UniProt Q04837 17-148, looked up) ESETTTSLVLERSLNRVHLLGRVGQDPVLRQVEGKNPVTIFSLATNEMWRSGDSEVYQLGDVSQKTTWHRISVFRPGLRDVAYQYVKKGSRIYLEGKIDYGEYMDKNNVRRQATTIIADNIIFLSDQTKEKE
	binds	human recombinant Δ80AAG (AAG lacking the first 80 amino acids) (domain or fragment, UniProt P29372 81-298, looked up) GHLTRLGLEFFDQPAVPLARAFLGQVLVRRLPNGTELRGRIVETEAYLGPEDEAAHSRGGRQTPRNRGMFMKPGTLYVYIIYGMYFCMNISSQGDGACVLLRALEPLEGLETMRQLRSTLRKGTASRVLKDRELCSGPSKLCQALAINKSFDQRDLAQDEAVWLERGPLEPSEPAVVAAARVGVGHAGEWARKPLRFYVRGSPWVSVVDRVAEQDTQA
